Measured values: the supplement of paper PMC9112550, “Optimization of the antimicrobial peptide Bac7 by deep mutational scanning” (BMC Biology, 2022)

Test system: Escherichia coli TOP10
Test: shrunken log2 fold change of peptide-encoding DNA abundance (4.5 h post-induction vs induction); higher = less antimicrobial activity (less host growth inhibition)
Conditions: time post-induction: 4.5 h; library: site-saturation at positions 5, 18, 19, 20
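Note: peptides expressed intracellularly from a pBAD plasmid library in pooled LB shake-flask culture, induced with 0.3% L-arabinose, DNA abundance read by NGS, three biological replicates, DESeq2 with apeglm shrinkage.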

## RRIRTRPPRLPRPRPRPIFYPRP
  shrunken log2 fold change: -0.315

## RRIRTRPPRLPRPRPRPIGSPRP
  shrunken log2 fold change: 0.0344

## RRIRTRPPRLPRPRPRPIHAPRP
  shrunken log2 fold change: -0.0176

## RRIRTRPPRLPRPRPRPIHLPRP
  shrunken log2 fold change: 0.0312

## RRIRTRPPRLPRPRPRPIHQPRP
  shrunken log2 fold change: 0.0323

## RRIRTRPPRLPRPRPRPIIRPRP
  shrunken log2 fold change: -0.0034

## RRIRTRPPRLPRPRPRPIKVPRP
  shrunken log2 fold change: 0.0474

## RRIRTRPPRLPRPRPRPILHPRP
  shrunken log2 fold change: -0.324

## RRIRTRPPRLPRPRPRPILIPRP
  shrunken log2 fold change: -0.485

## RRIRTRPPRLPRPRPRPIMCPRP
  shrunken log2 fold change: -0.255

## RRIRTRPPRLPRPRPRPINRPRP
  shrunken log2 fold change: 0.028

## RRIRTRPPRLPRPRPRPINTPRP
  shrunken log2 fold change: -0.687

## RRIRTRPPRLPRPRPRPIPAPRP
  shrunken log2 fold change: 0.0613

## RRIRTRPPRLPRPRPRPIPQPRP
  shrunken log2 fold change: 0.284

## RRIRTRPPRLPRPRPRPIQYPRP
  shrunken log2 fold change: -0.044

## RRIRTRPPRLPRPRPRPIRFPRP
  shrunken log2 fold change: -0.0183

## RRIRTRPPRLPRPRPRPIRPPRP
  shrunken log2 fold change: 0.122

## RRIRTRPPRLPRPRPRPISYPRP
  shrunken log2 fold change: 0.061

## RRIRTRPPRLPRPRPRPITNPRP
  shrunken log2 fold change: -0.489

## RRIRTRPPRLPRPRPRPIVGPRP
  shrunken log2 fold change: -0.0587

## RRIRTRPPRLPRPRPRPIWDPRP
  shrunken log2 fold change: -0.414

## RRIRTRPPRLPRPRPRPIWHPRP
  shrunken log2 fold change: 0.12

## RRIRTRPPRLPRPRPRPIWPPRP
  shrunken log2 fold change: 0.173

## RRIRTRPPRLPRPRPRPIYHPRP
  shrunken log2 fold change: -0.191

## RRIRTRPPRLPRPRPRPKCQPRP
  shrunken log2 fold change: -0.144

## RRIRTRPPRLPRPRPRPKEVPRP
  shrunken log2 fold change: -0.0117

## RRIRTRPPRLPRPRPRPKFGPRP
  shrunken log2 fold change: -0.00436

## RRIRTRPPRLPRPRPRPKFKPRP
  shrunken log2 fold change: -0.225

## RRIRTRPPRLPRPRPRPKFLPRP
  shrunken log2 fold change: 0.0687

## RRIRTRPPRLPRPRPRPKHKPRP
  shrunken log2 fold change: -0.185

## RRIRTRPPRLPRPRPRPKHNPRP
  shrunken log2 fold change: -0.362

## RRIRTRPPRLPRPRPRPKIGPRP
  shrunken log2 fold change: -0.0689

## RRIRTRPPRLPRPRPRPKINPRP
  shrunken log2 fold change: -0.325

## RRIRTRPPRLPRPRPRPKKHPRP
  shrunken log2 fold change: -0.265

## RRIRTRPPRLPRPRPRPKKSPRP
  shrunken log2 fold change: -0.106

## RRIRTRPPRLPRPRPRPKLEPRP
  shrunken log2 fold change: -0.0598

## RRIRTRPPRLPRPRPRPKMPPRP
  shrunken log2 fold change: 0.158

## RRIRTRPPRLPRPRPRPKNIPRP
  shrunken log2 fold change: -0.627

## RRIRTRPPRLPRPRPRPKNSPRP
  shrunken log2 fold change: -0.438

## RRIRTRPPRLPRPRPRPKPFPRP
  shrunken log2 fold change: 0.122

## RRIRTRPPRLPRPRPRPKPTPRP
  shrunken log2 fold change: 0.0943

## RRIRTRPPRLPRPRPRPKQGPRP
  shrunken log2 fold change: 0.0588

## RRIRTRPPRLPRPRPRPKQHPRP
  shrunken log2 fold change: 0.119

## RRIRTRPPRLPRPRPRPKRYPRP
  shrunken log2 fold change: -0.154

## RRIRTRPPRLPRPRPRPKSCPRP
  shrunken log2 fold change: -0.0893

## RRIRTRPPRLPRPRPRPKSMPRP
  shrunken log2 fold change: -0.62

## RRIRTRPPRLPRPRPRPKTEPRP
  shrunken log2 fold change: 0.0183

## RRIRTRPPRLPRPRPRPKTKPRP
  shrunken log2 fold change: -0.212

## RRIRTRPPRLPRPRPRPKTLPRP
  shrunken log2 fold change: 0.0791

## RRIRTRPPRLPRPRPRPKTMPRP
  shrunken log2 fold change: -0.0972

## RRIRTRPPRLPRPRPRPKTNPRP
  shrunken log2 fold change: -0.157

## RRIRTRPPRLPRPRPRPKVPPRP
  shrunken log2 fold change: -0.0154

## RRIRTRPPRLPRPRPRPKWGPRP
  shrunken log2 fold change: 0.118

## RRIRTRPPRLPRPRPRPKWIPRP
  shrunken log2 fold change: -0.232

## RRIRTRPPRLPRPRPRPLASPRP
  shrunken log2 fold change: 0.125

## RRIRTRPPRLPRPRPRPLDLPRP
  shrunken log2 fold change: 0.0209

## RRIRTRPPRLPRPRPRPLDPPRP
  shrunken log2 fold change: -0.382

## RRIRTRPPRLPRPRPRPLFLPRP
  shrunken log2 fold change: -0.184

## RRIRTRPPRLPRPRPRPLHCPRP
  shrunken log2 fold change: -0.148

## RRIRTRPPRLPRPRPRPLIMPRP
  shrunken log2 fold change: -0.718

## RRIRTRPPRLPRPRPRPLKAPRP
  shrunken log2 fold change: 0.0363

## RRIRTRPPRLPRPRPRPLLAPRP
  shrunken log2 fold change: 0.282

## RRIRTRPPRLPRPRPRPLLQPRP
  shrunken log2 fold change: 0.173

## RRIRTRPPRLPRPRPRPLLYPRP
  shrunken log2 fold change: -0.444

## RRIRTRPPRLPRPRPRPLMGPRP
  shrunken log2 fold change: 0.0521

## RRIRTRPPRLPRPRPRPLMVPRP
  shrunken log2 fold change: -0.32

## RRIRTRPPRLPRPRPRPLNGPRP
  shrunken log2 fold change: -0.235

## RRIRTRPPRLPRPRPRPLQFPRP
  shrunken log2 fold change: -0.497

## RRIRTRPPRLPRPRPRPLRAPRP
  shrunken log2 fold change: 1.05

## RRIRTRPPRLPRPRPRPLRSPRP
  shrunken log2 fold change: 0.387

## RRIRTRPPRLPRPRPRPLSTPRP
  shrunken log2 fold change: -0.386

## RRIRTRPPRLPRPRPRPLWYPRP
  shrunken log2 fold change: -0.245

## RRIRTRPPRLPRPRPRPLYEPRP
  shrunken log2 fold change: -0.774

## RRIRTRPPRLPRPRPRPLYFPRP
  shrunken log2 fold change: -0.418

## RRIRTRPPRLPRPRPRPLYVPRP
  shrunken log2 fold change: -0.4

## RRIRTRPPRLPRPRPRPMAKPRP
  shrunken log2 fold change: 0.0153

## RRIRTRPPRLPRPRPRPMFGPRP
  shrunken log2 fold change: 0.115

## RRIRTRPPRLPRPRPRPMFLPRP
  shrunken log2 fold change: -0.593

## RRIRTRPPRLPRPRPRPMFTPRP
  shrunken log2 fold change: -0.253

## RRIRTRPPRLPRPRPRPMHLPRP
  shrunken log2 fold change: -0.318

## RRIRTRPPRLPRPRPRPMIGPRP
  shrunken log2 fold change: -0.107

## RRIRTRPPRLPRPRPRPMIMPRP
  shrunken log2 fold change: -0.437

## RRIRTRPPRLPRPRPRPMKTPRP
  shrunken log2 fold change: 0.0208

## RRIRTRPPRLPRPRPRPMLTPRP
  shrunken log2 fold change: 0.21

## RRIRTRPPRLPRPRPRPMNAPRP
  shrunken log2 fold change: 0.194

## RRIRTRPPRLPRPRPRPMNHPRP
  shrunken log2 fold change: -0.0849

## RRIRTRPPRLPRPRPRPMNQPRP
  shrunken log2 fold change: -0.941

## RRIRTRPPRLPRPRPRPMNSPRP
  shrunken log2 fold change: -0.191

## RRIRTRPPRLPRPRPRPMQVPRP
  shrunken log2 fold change: -0.21

## RRIRTRPPRLPRPRPRPMSKPRP
  shrunken log2 fold change: -0.0499

## RRIRTRPPRLPRPRPRPMSTPRP
  shrunken log2 fold change: -0.0153

## RRIRTRPPRLPRPRPRPMTWPRP
  shrunken log2 fold change: 0.0637

## RRIRTRPPRLPRPRPRPMVMPRP
  shrunken log2 fold change: -0.0384

## RRIRTRPPRLPRPRPRPMWDPRP
  shrunken log2 fold change: 0.00971

## RRIRTRPPRLPRPRPRPMWLPRP
  shrunken log2 fold change: -0.0194

## RRIRTRPPRLPRPRPRPMYEPRP
  shrunken log2 fold change: -0.375

## RRIRTRPPRLPRPRPRPNCGPRP
  shrunken log2 fold change: 0.0396

## RRIRTRPPRLPRPRPRPNFDPRP
  shrunken log2 fold change: 0.232

## RRIRTRPPRLPRPRPRPNGLPRP
  shrunken log2 fold change: -0.00146

## RRIRTRPPRLPRPRPRPNHFPRP
  shrunken log2 fold change: -0.316

## RRIRTRPPRLPRPRPRPNKLPRP
  shrunken log2 fold change: -0.127

## RRIRTRPPRLPRPRPRPNKSPRP
  shrunken log2 fold change: -0.315

## RRIRTRPPRLPRPRPRPNKWPRP
  shrunken log2 fold change: 0.0213

## RRIRTRPPRLPRPRPRPNLCPRP
  shrunken log2 fold change: 0.108

## RRIRTRPPRLPRPRPRPNNVPRP
  shrunken log2 fold change: -0.227

## RRIRTRPPRLPRPRPRPNRMPRP
  shrunken log2 fold change: -0.331

## RRIRTRPPRLPRPRPRPNTAPRP
  shrunken log2 fold change: -0.0235

## RRIRTRPPRLPRPRPRPNTGPRP
  shrunken log2 fold change: -0.388

## RRIRTRPPRLPRPRPRPNWPPRP
  shrunken log2 fold change: -0.0423

## RRIRTRPPRLPRPRPRPNYRPRP
  shrunken log2 fold change: -0.0168

## RRIRTRPPRLPRPRPRPPAAPRP
  shrunken log2 fold change: 0.353

## RRIRTRPPRLPRPRPRPPADPRP
  shrunken log2 fold change: 0.217

## RRIRTRPPRLPRPRPRPPCYPRP
  shrunken log2 fold change: -0.139

## RRIRTRPPRLPRPRPRPPDVPRP
  shrunken log2 fold change: 0.176

## RRIRTRPPRLPRPRPRPPEGPRP
  shrunken log2 fold change: 0.308

## RRIRTRPPRLPRPRPRPPFWPRP
  shrunken log2 fold change: 0.379

## RRIRTRPPRLPRPRPRPPGQPRP
  shrunken log2 fold change: 0.622

## RRIRTRPPRLPRPRPRPPHFPRP
  shrunken log2 fold change: 0.7

## RRIRTRPPRLPRPRPRPPHLPRP
  shrunken log2 fold change: 0.0444

## RRIRTRPPRLPRPRPRPPIAPRP
  shrunken log2 fold change: 0.328

## RRIRTRPPRLPRPRPRPPITPRP
  shrunken log2 fold change: -0.235

## RRIRTRPPRLPRPRPRPPKAPRP
  shrunken log2 fold change: 0.0856

## RRIRTRPPRLPRPRPRPPKKPRP
  shrunken log2 fold change: 0.0946

## RRIRTRPPRLPRPRPRPPKLPRP
  shrunken log2 fold change: -0.0543

## RRIRTRPPRLPRPRPRPPLTPRP
  shrunken log2 fold change: 0.13

## RRIRTRPPRLPRPRPRPPLVPRP
  shrunken log2 fold change: 0.184

## RRIRTRPPRLPRPRPRPPNCPRP
  shrunken log2 fold change: 0.0905

## RRIRTRPPRLPRPRPRPPNHPRP
  shrunken log2 fold change: -0.000973

## RRIRTRPPRLPRPRPRPPPCPRP
  shrunken log2 fold change: 0.292

## RRIRTRPPRLPRPRPRPPPEPRP
  shrunken log2 fold change: 0.643

## RRIRTRPPRLPRPRPRPPPIPRP
  shrunken log2 fold change: 0.451

## RRIRTRPPRLPRPRPRPPQMPRP
  shrunken log2 fold change: 0.185

## RRIRTRPPRLPRPRPRPPRYPRP
  shrunken log2 fold change: 0.152

## RRIRTRPPRLPRPRPRPPSDPRP
  shrunken log2 fold change: 0.498

## RRIRTRPPRLPRPRPRPPVQPRP
  shrunken log2 fold change: 0.0423

## RRIRTRPPRLPRPRPRPPWCPRP
  shrunken log2 fold change: 0.28

## RRIRTRPPRLPRPRPRPQAGPRP
  shrunken log2 fold change: 0.107

## RRIRTRPPRLPRPRPRPQCDPRP
  shrunken log2 fold change: -0.184

## RRIRTRPPRLPRPRPRPQCMPRP
  shrunken log2 fold change: -0.133

## RRIRTRPPRLPRPRPRPQDCPRP
  shrunken log2 fold change: 0.0249

## RRIRTRPPRLPRPRPRPQDRPRP
  shrunken log2 fold change: -0.0332

## RRIRTRPPRLPRPRPRPQEKPRP
  shrunken log2 fold change: -0.0148

## RRIRTRPPRLPRPRPRPQFCPRP
  shrunken log2 fold change: -0.486

## RRIRTRPPRLPRPRPRPQFWPRP
  shrunken log2 fold change: -0.00273

## RRIRTRPPRLPRPRPRPQGQPRP
  shrunken log2 fold change: -0.186

## RRIRTRPPRLPRPRPRPQGSPRP
  shrunken log2 fold change: -0.0161

## RRIRTRPPRLPRPRPRPQHEPRP
  shrunken log2 fold change: -0.00128

## RRIRTRPPRLPRPRPRPQKCPRP
  shrunken log2 fold change: -0.0262

## RRIRTRPPRLPRPRPRPQPMPRP
  shrunken log2 fold change: 0.267

## RRIRTRPPRLPRPRPRPQQPPRP
  shrunken log2 fold change: 0.153
